# Data published in the nanobody polyreactivity screen of Harvey et al. (2022).
# Assay: yeast display, Sf9 membrane polyspecificity reagent, FACS + sequencing; frameworks hold sequencing errors
# How it was run: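 In a synthetic yeast display library (Saccharomyces cerevisiae BJ5465), nanobody expression was induced with galactose for 36–48 hours. FACS gates were set low and high (top ~1%) using anti-HA fluorescence for expression and streptavidin fluorescence for binding of the Sf9 membrane reagent. Each polyreactivity label is drawn from the gate of origin.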
row,Sequence,polyreactivity (PSR sort gate)
1,QVQLVESGGGLLQAGGSLRLSCAASGSIFGGNAMGWYRQAPGKEREFVAAITVSDGSTYYADSVKGRFTISRDNAKNTVYLQMNSLKPEDTAVYYCAAGGFYYPHYDYWGQGSQVTVSS,low polyreactivity
2,QVQLVESGGGLLQAGGSLRLSCAASGSIFGYNAMGWYRQAPGKERELVAAISYSGGSTYYADSVKGRFPISRDNAKNTVYLQMNSLKPEDTAVYYCAKAGRYANLPYGYWGQGTQVTVSS,high polyreactivity
3,QVQLVESGGGLLQAGGSLRLSCAASGSIFSYYVMGWYRQAPGKERELVAAISSSGGSTYYADSVKGRFTISRDNEKNTVYLQMNSLKPEDTAVYYCAAQHYVRSSIPGFIYYYWGQGTQVTVSS,high polyreactivity
4,QVQLVESGGGLLQAGGSLRLSCAASGSIFTHNAMGWYRQAPGKERELVAAISSGGSTNYADSVKGRFTISRDNAKNTVYLHMNSLKPEDTAVYYCAATDQKLSLDYSSYEYWGQGTQVTVSS,low polyreactivity
5,QVQLVESGGGLLQAGGSLRLSCAASGSIFTSNAMGWYRQAPGKERELVAAITRGGNTNYADSVKGRFTISRDNAKNTVYLQMNSLKPEDTAVYYCATEGFVYSWLWEFEYWGQGTQVTVSS,low polyreactivity
6,QVQLVESGGGLLQAGGSLRLSCAASGSIFYGYAMGWYRQAPGKERELVAAITRGGGTYYADSVKGRFTNSRDNAKITVYLQMNSLKPEDTAVYYCALSFYRRYTPYDYWGQGTQLTVSS,high polyreactivity
7,QVQLVESGGGLLQAGGSLRLSCAASGSNFVAYAMGRYRQAPGKERELVAAITYSGGGTYYADSVKGRCTISRDNAKNTVYLLMNSLKPEDTALYYCNAVGGIYDFDYCGQGTQVTVSS,high polyreactivity
8,QVQLVESGGGLLQAGGSLRLSCAASGSTFGFYALGWFRQAPGKERELVAAISSGGTSTYYADSVKGRFTISRDNAKTTVYLQMNSVIPEDTAVYYCNSDTFQYPSTYDYWGQGTQVTVSS,low polyreactivity
9,QVQLVESGGGLLQAGGSLRLSCAASGSTFSRYTMGWYRQAPGKERELVAAISYRGGSTYYADSVKGRFTISRDNAKNTVYLQMNSLKPEDTAVYYCAAEFRVEGSDYDYWGQGTQVTVSS,low polyreactivity
10,QVQLVESGGGLLQAGGSLRLSCAASGSTFYFYARGWYRQAPGKERELVAAITGSGGSTYYAVYVKGRFTISRDNSRNSVYLQMKSVKPEDTAVYYCAAGWWYYVHMDYWGQGTQVTVSS,high polyreactivity
11,QVQLVESGGGLLQAGGSLRLSCAASGYIFQYYAMGWYRQAPGKERELVAAITGGGSTKYADSVKGRFTISRDNAKNTVYLQMNSLKPEDTAVYYCAASLWYRISKYDYWGQGTQVTVSS,high polyreactivity
12,QVQLVESGGGLLQAGGSLRLSCASSGRTFKANAMVWYRQAPGKERELVAAISYSGGNTYYADSVKGRFTISRDNANNTVYLQMNSLKPEDTAVYYCARYYYLPVVDMDYWGQGTQVTVSS,high polyreactivity
13,QVQLVESGGGLLQAGGSLRLSCSATGSLFEGNGMGWYRQAPGKERELVASITRSGGSTYYADSVKGRFTISRDNAKNTVYLQINSLIPEDTAVYYCAAYPVRYYNQYDYWGLGTQVTVSS,low polyreactivity
14,QVQLVESGGGLLQAGGSLRLSFAASGRIYWNTMGWYRQAPGKERELVASISTGGGRTYYADSVKGRFTISRDNAKNTVYLQMNSLKPEDTAVYYCNADFISTRPPKATDEDYWGQGTQVTVSS,high polyreactivity
15,QVQLVESGGGLLQAGGSLRLSSAASGRIFYGNTMGWYRQAPGKERELVAAITWRGGSTYYADSVKGRFTISRDNAKNTVYLQMNSLKPEDTAVYYCAAVSYRGRGYWGQGTQVTVSS,high polyreactivity
16,QVQLVESGGGLLQAGGSLRLTCAASGFTFSLNTMGWYRQAPAKEREFVAAINSGDSTYADSVKGRYTISRDNAKNTVYLQMNSLKPEDTAVYYCNADPDWWYPYNYWGQGTQVTVSS,low polyreactivity
17,QVQLVESGGGLLQAGGSLRLTCAASGRIFGRYAMGWYRQAPGKERELVAAISYSGGSTRYADSVKGRFTISRDNSKNTVYLQMNSLKPEDTAVYYCAAARRFSTHEYWGQGTQVTVSS,high polyreactivity
18,QVQLVESGGGLVEAGGSLRLSCAASGFIFSSYVMGWYRQAPGKERELVAAITSGNSTYYADSVKGRFTISRDNAKTTVYLQMNSLKPEDTAVSYCTADSYHTYYYWYDYWGQGTQVTVSS,low polyreactivity
19,QVQLVESGGGLVEAGGSLRLSCAASGFTFHYYTMGWYRQAPVKERELVASINYSGGRTYYADSVKGRFTISRDIAMNTVYLQMNSLKPEDTAVYYCNARYKSTYYYWGQGTQVTVSS,high polyreactivity
20,QVQLVESGGGLVEAGGSLRLSCAASGRIFLSYAMGWYRQAPGKERELVATITDRGGRTYYADSVKGRFTISRDNAKNTVYLQMNSLKAEDTAVDYCAAGLVYRGYRRDYWGQGTQVTVTS,low polyreactivity
21,QVQLVESGGGLVEAGGSLRLSCAAYGRTFDYYDMGWYRPAPGKERELVAGITVSSGGTNYADSVKGRFTISRDNAKNTVYLQMNSLNPEDTAVYYCADANYDFYAFDSTYRYNYWGQGTQVTVSS,low polyreactivity

row,Sequence,polyreactivity (PSR sort gate)
1,QVQLVESGGGLVEAGGSLRLSGAASGRSFGIYAMGWYRQAPGKERELVAAITWSGDSTYYADSVKGRFTISRDNAKKTVYLQMNILKPEDTAVYYCAADDVGVTSVRYDYWGQGTLVTVSS,low polyreactivity
2,QVQLVESGGGLVEAGGSLRLTCAAYGSIFSAYAMGWYRAAPGKERELVAAITRGTSTNYADSVKGRFTISRDNAKNTVYLQMNSLKPEDTAVYYCAVGYNSKLAVGMYYWGLGTQVTVSS,low polyreactivity
3,QVQLVESGGGLVEAGVSLRISCAASGRIFAYNTMGWYRQAPGKERELVAAISWRGGSTYYADSVKGRFTISRDNEKNSVHLQRNSLKPEDTAVYYCAVLSSSLTRFDYWGQGSQVTVSS,high polyreactivity
4,QVQLVESGGGLVEEGGSLRLSCAASGSIFSANALGWYRQAPGKERELVACITGDGSTNYADSVKGRFTISRDNAKNTVYLQMNSLKPEDTAVYYCAADIGSWYDYWGQGTQVTVSS,low polyreactivity
5,QVQLVESGGGLVHAAGSLRLSCAASGRTFRYNTMGWYRQASGKESELVARITRSGGSTYYADSVKGRFTISRDNAKNTVYLQMNSLKPEDTAVYYCAAVPILVYRWFQYYTGDYDYWGQGTQVTVSS,low polyreactivity
6,QVQLVESGGGLVHAGCSLRLSCSASGRISGYAMGWYRQAPGKERELVAAISKSAARTYYADSVKGRFTISRDNAKNTVYLQMNSLKAEDTAVYYCAADKPYRYDYWGQGTQVTVSS,high polyreactivity
7,QVQLVESGGGLVHAGGILSLSSAASGFTIGYYSMGWYRQAPGKERELVAAINWSGGRTYYGDSVKGRFTISRDIAKNTVYFQMTSLKPEDTAVYYCAADPNKGRQMYYWGQGSQVTVSS,high polyreactivity
8,QVQLVESGGGLVHAGGRLRLSCAASGRIFYTYTMGWYSQAPGKERELVATITDGTRTNYADSVKGRFTISRDNAKITVYLQMTSLQPEDTAVYYCNAAGRWHDLYRINYDYWGQGTKVTVSS,low polyreactivity
9,QVQLVESGGGLVHAGGRLRLSCAASGRISGYAMAWYRQAPRTERELVAAISTRGGTTYYADSVKGRFTISRDNAKNTVYLQMNSLKPEDTAVYFCNAASSRWPEYDFWGQGTQVTVSS,high polyreactivity
10,QVQLVESGGGLVHAGGSHRLSCAASGFSFKSYAMGWYRQAPGKERELVAAISRRCGSTNYADSVKGRFTISRDNAKNTVYLQMNSLKPEDTAVYYCNADPYNSPYQVSGPYKEDYDYWGQGTQVTVSS,high polyreactivity
11,QVQLVESGGGLVHAGGSLGLSCAASGSIFYEYVMGWYRQAPGKERELVATIDLNGGSTTYADSVKGRFTISRDNAKNTDYLQMNSLKPEDTAVYYCAAQTGFVSHFFWHYDYWGQGSQVTVSS,low polyreactivity
12,QVQLVESGGGLVHAGGSLRLSCAASGFIFNFYAMGWYRQAPGKERELVAAISRTGGSTYYADSVKGRFTISRDNAKNTVYLQMNSLKPEDTAVYYCNAGCGFRSYGYDPWGQGTQVTVSS,high polyreactivity
13,QVQLVESGGGLVHAGGSLRLSCAASGFILTGYTMGWYRQAPGKEMELVAAISYRGGSTYYADSVKGRFTISRDNAKNTVYLQMNSLKPEDTAVYYCNAVWSNFRLGYDYWGQGTQVTVSS,high polyreactivity
14,QVQLVESGGGLVHAGGSLRLSCAASGFTFEYNAMGWYRQAPGKERELVAVITYRGGSTYYADSVKGRFTISRDNAKHTVYLQMNSLKPEDTAVYYCAADSVTYGGDYWGQGTQVTVSS,high polyreactivity
15,QVQLVESGGGLVHAGGSLRLSCAASGFTFRGYAMGWYRPSPGKEREFVAAISRSGGSTNYADSVKGRFTISRDNAKNTVYLQMNSLKPEDTAVYYCAAGWNPYDYWGQGTQVTVSS,high polyreactivity
16,QVQLVESGGGLVHAGGSLRLSCAASGFTFRYGMGWYRQAPRKERELVAAISNTGGSTYYADSVKGRFTISRDNAKNTVYLKMNSLKPEDTSVYYCAAAGGLWWVFYALDYWGQGTQVSVSS,low polyreactivity
17,QVQLVESGGGLVHAGGSLRLSCAASGFTFYYYAMGWYRPAPGKERELVAAISSRGGNSYYADSVKGRFTISRDNAKNTVYLQMNSLKPEDTAVYYCASVPLKYDYWGQGTQVTVSS,high polyreactivity
18,QVQLVESGGGLVHAGGSLRLSCAASGFTIRSYVMGWYRQAPGKERELVAAIRRSGGSTYYADSVKGRFTISRDNAKNTVYLQMNCLKPEDTAVYYCNADIRAYTVLTGGYIYDYWGQGTQVTVSS,high polyreactivity
19,QVQLVESGGGLVHAGGSLRLSCAASGGTFSLNAMGWYRKAPGTERELVAAISKRSSTTYYADSVKGRFTISRDNAKNTVYLQMNSLKPEDTSVYYCAARVLRSRKPGRGYDYWGQGTQVTVSS,high polyreactivity
20,QVQLVESGGGLVHAGGSLRLSCAASGILFGYYAIGWYRQAPGKERELVAAITSGSSTDYADSVKGRFTISRDNAKNTFYLQMNSLKPEDTAVYYCNAVTSASTYTFPFDYWGQGTQVTVSS,low polyreactivity
